# Test results published in patent US20240352438A1, “MEANS AND METHODS FOR DETOXIFYING OCHRATOXIN A” (DSM Austria GmbH, priority 2021, published 2024).
# Experiments:
# [1] = OTA detoxification activity assay (specific activity, fluorescence reduction ex/em 390/450 nm); format: biochemical; conditions: SEQ ID NO: 1 = 100%
# In short: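 Recombinant enzyme preparation with 200 ng/mL OTA in 100 mM sodium phosphate, at pH 6.0 and pH 7.5, 37° C. Degradation followed as the fall in fluorescence at ex/em 390/450 nm. Specific activity taken from the initial linear slope; one unit degrades 1 μmol OTA per min at a starting OTA of […].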
# [2] = Enzymatic activity comparison: activity remaining after 65° C. for 10 min at pH 6.0, relative to SEQ ID NO: 1; format: physicochemical
# Procedure: To compare the temperature behavior and thermostability of selected enzymes to one another, enzyme was incubated at 65° C. for 10 min at pH 6.0. The enzymatic activity remaining after incubation was compared to the remaining activity of the enzyme of SEQ ID NO: 1 after incubation, the latter being set to 100%, see Table 16.
Molecule,"Specific OTA detoxification activities in % compared to the enzyme of SEQ ID NO: 1, pH 6.0 [1]","Specific OTA detoxification activities in % compared to the enzyme of SEQ ID NO: 1, pH 7.5 [1]","Enzymatic activity remaining after incubation, compared to SEQ ID NO: 1 (set to 100%) [2]"
"235 (protein, exemplary polypeptide) MTTRTRILTAFLSLLAANACAADAAPAAPHTVVLRAARMFDGASGKLVDHPQLTIVGNKIVRIAQGDKAEVPAGAEVVDLGDATLLPGFIDAHVHLSGQSSDNWYGDFFDNMMRFPAEQALYGAYYARITLEAGFTSVRDVGSTDWVALGLRNAIDAGKVPGPRMLVSNYAVGSTGGHADQDPIPPHKLPLAGPLQGVCNGPEECRAAVRYQIKYGANVIKFMPSGGVLSLSDPVDAPELSQDEMNAVIGESNAWGRKVAAHAHGDKAAKMAVAAGVDSIEHGSFIEDDTLRAMKAKNVYLVPTISAIAHVEEKIGTFPPVIAEKGRAAAAHLRQTFRHAVQIGVPIALGTDAGVGAHGSNAREFRYMVENGLTPAQALLAGTANAARLLGTFDRVGTLEAGKLADVVAVPGNPIADITVTERPLFVMKDGVVVRRDAVR",56%,38%,56%
"239 (protein, exemplary polypeptide) MTTRTRILTAFLSLLAANACAADAAPAAPHTVVLRAARMFDGASGKLVDHPQLTIVGNKIVRIAQGDKAEVPAGAEVVDLGDATLLPGFIDAHVHLSGQSSDNWYGDFFDNMMRFPAEQALYGAYYARITLEAGFTSVRDVGSTDWVALGLRNAIDAGKVPGPRMLVSNYAVGSTGGHADQDPIPPHKLPLAGPLQGVCNGPEECRAAVRYQIKYGANVIKFMPSGGVLSLSDPVDAPELSQDEMNAVIGESHAWGRKVAAHAHGDKAAKMAVAAGVDSIEHGSFIEDDTLRAMKAKNVYLVPTISAIADVEEKIGTFPPVIAEKGRAAAAHLRQTFRHAVQIGVPIALGTDAGVGAHGSNAREFRYMVENGLTPAQALLAGTANAARLLGTFDRVGTLEAGKLADVVAVPGNPIADITVTERPLFVMKDGVVVRRDAVR",73%,76%,30%
"243 (protein, exemplary polypeptide) MTTRTRILTAFLSLLAANACAADAAPAAPHTVVLRAARMFDGASGKLVDHPQLTIVGNKIVRIAQGDKAEVPAGAEVVDLGDATLLPGFIDAHVHLSGQSSDNWYGDFFDNMMRFPAEQALYGAYYARITLEAGFTSVRDVGSTDWVALGLRNAIDAGKVPGPRMLVSNYAVGSTGGHADQDPIPPHKLPLAGPLQGVCNGPEECRAAVRYQIKYGANVIKFMPSGGVLSLSDPVDAPELSQDEMNAVIGESHAWGRKVAAHAHGDKAAKMAVAAGVDSIEHGSFIEDDTLRAMKAKNVYLVPTISAIAHVEEKIGTFPPVIAEKGRAAAASLRQTFRHAVQIGVPIALGTDAGVGAHGSNAREFRYMVENGLTPAQALLAGTANAARLLGTFDRVGTLEAGKLADVVAVPGNPIADITVTERPLFVMKDGVVVRRDAVR",37%,77%,41%
"240 (protein, exemplary polypeptide) MTTRTRILTAFLSLLAANACAADAAPAAPHTVVLRAARMFDGASGKLVDHPQLTIVGNKIVRIAQGDKAEVPAGAEVVDLGDATLLPGFIDAHVHLSGQSSDNWYGDFFDNMMRFPAEQALYGAYYARITLEAGFTSVRDVGSTDWVALGLRNAIDAGKVPGPRMLVSNYAVGSTGGHADQDPIPPHKLPLAGPLQGVCNGPEECRAAVRYQIKYGANVIKFMPSGGVLSLSDPVDAPELSQDEMNAVIGESHAWGRKVAAHAHGDKAAKMAVAAGVDSIEHGSFIEDDTLRAMKAKNVYLVPTISAIAEVEEKIGTFPPVIAEKGRAAAAHLRQTFRHAVQIGVPIALGTDAGVGAHGSNAREFRYMVENGLTPAQALLAGTANAARLLGTFDRVGTLEAGKLADVVAVPGNPIADITVTERPLFVMKDGVVVRRDAVR",86%,101%,44%
"244 (protein, exemplary polypeptide) MTTRTRILTAFLSLLAANACAADAAPAAPHTVVLRAARMFDGASGKLVDHPQLTIVGNKIVRIAQGDKAEVPAGAEVVDLGDATLLPGFIDAHVHLSGQSSDNWYGDFFDNMMRFPAEQALYGAYYARITLEAGFTSVRDVGSTDWVALGLRNAIDAGKVPGPRMLVSNYAVGSTGGHADQDPIPPHKLPLAGPLQGVCNGPEECRAAVRYQIKYGANVIKFMPSGGVLSLSDPVDAPELSQDEMNAVIGESHAWGRKVAAHAHGDKAAKMAVAAGVDSIEHGSFIEDDTLRAMKAKNVYLVPTISAIAHVEEKIGTFPPVIAEKGRAAAAHLRQTFREAVQIGVPIALGTDAGVGAHGSNAREFRYMVENGLTPAQALLAGTANAARLLGTFDRVGTLEAGKLADVVAVPGNPIADITVTERPLFVMKDGVVVRRDAVR",127%,93%,33%
"238 (protein, exemplary polypeptide) MTTRTRILTAFLSLLAANACAADAAPAAPHTVVLRAARMFDGASGKLVDHPQLTIVGNKIVRIAQGDKAEVPAGAEVVDLGDATLLPGFIDAHVHLSGQSSDNWYGDFFDNMMRFPAEQALYGAYYARITLEAGFTSVRDVGSTDWVALGLRNAIDAGKVPGPRMLVSNYAVGSTGGHADQDPIPPHKLPLAGPLQGVCNGPEECRAAVRYQIKYGANVIKFMPSGGVLSLSDPVDAPELSQDEMNAVIGESHAWGRKVAAHAHGDKAAKMAVAAGVDSIEHGTFIEDDTLRAMKAKNVYLVPTISAIAHVEEKIGTFPPVIAEKGRAAAAHLRQTFRHAVQIGVPIALGTDAGVGAHGSNAREFRYMVENGLTPAQALLAGTANAARLLGTFDRVGTLEAGKLADVVAVPGNPIADITVTERPLFVMKDGVVVRRDAVR",151%,97%,24%
"242 (protein, exemplary polypeptide) MTTRTRILTAFLSLLAANACAADAAPAAPHTVVLRAARMFDGASGKLVDHPQLTIVGNKIVRIAQGDKAEVPAGAEVVDLGDATLLPGFIDAHVHLSGQSSDNWYGDFFDNMMRFPAEQALYGAYYARITLEAGFTSVRDVGSTDWVALGLRNAIDAGKVPGPRMLVSNYAVGSTGGHADQDPIPPHKLPLAGPLQGVCNGPEECRAAVRYQIKYGANVIKFMPSGGVLSLSDPVDAPELSQDEMNAVIGESHAWGRKVAAHAHGDKAAKMAVAAGVDSIEHGSFIEDDTLRAMKAKNVYLVPTISAIAHVEEKIGTFPPVIAEKGRAAAARLRQTFRHAVQIGVPIALGTDAGVGAHGSNAREFRYMVENGLTPAQALLAGTANAARLLGTFDRVGTLEAGKLADVVAVPGNPIADITVTERPLFVMKDGVVVRRDAVR",41%,54%,11%
"241 (protein, exemplary polypeptide) MTTRTRILTAFLSLLAANACAADAAPAAPHTVVLRAARMFDGASGKLVDHPQLTIVGNKIVRIAQGDKAEVPAGAEVVDLGDATLLPGFIDAHVHLSGQSSDNWYGDFFDNMMRFPAEQALYGAYYARITLEAGFTSVRDVGSTDWVALGLRNAIDAGKVPGPRMLVSNYAVGSTGGHADQDPIPPHKLPLAGPLQGVCNGPEECRAAVRYQIKYGANVIKFMPSGGVLSLSDPVDAPELSQDEMNAVIGESHAWGRKVAAHAHGDKAAKMAVAAGVDSIEHGSFIEDDTLRAMKAKNVYLVPTISAIAHVEEKIGTFPPVIAEKGRAAAAELRQTFRHAVQIGVPIALGTDAGVGAHGSNAREFRYMVENGLTPAQALLAGTANAARLLGTFDRVGTLEAGKLADVVAVPGNPIADITVTERPLFVMKDGVVVRRDAVR",18%,55%,73%
"237 (protein, exemplary polypeptide) MTTRTRILTAFLSLLAANACAADAAPAAPHTVVLRAARMFDGASGKLVDHPQLTIVGNKIVRIAQGDKAEVPAGAEVVDLGDATLLPGFIDAHVHLSGQSSDNWYGDFFDNMMRFPAEQALYGAYYARITLEAGFTSVRDVGSTDWVALGLRNAIDAGKVPGPRMLVSNYAVGSTGGHADQDPIPPHKLPLAGPLQGVCNGPEECRAAVRYQIKYGANVIKFMPSGGVLSLSDPVDAPELSQDEMNAVIGESHAWGRKVAAHAHGDKAAKMAVAAGVDSIEHGHFIEDDTLRAMKAKNVYLVPTISAIAHVEEKIGTFPPVIAEKGRAAAAHLRQTFRHAVQIGVPIALGTDAGVGAHGSNAREFRYMVENGLTPAQALLAGTANAARLLGTFDRVGTLEAGKLADVVAVPGNPIADITVTERPLFVMKDGVVVRRDAVR",49%,26%,14%
